pIC50, pKd: −log10 of the molar value.
How the values were obtained:
HLA-B*08:01 [1] = assay: IEDB peptide-MHC binding, purified MHC/competitive/fluorescence; ≥ and ≤ were set here for values at or beyond the usual limits of such assays
HLA-A*11:01 [2] = assay: as above; conditions: source organism: Zaire ebolavirus
HLA-A*11:01 [3] = assay: IEDB peptide-MHC binding, purified MHC/direct/fluorescence; filed as Kd, often an IC50 or EC50 that approximates it; ≥ and ≤ were set here for values at or beyond the usual limits of such assays
HLA-A*31:01 [4] = assay: as above
HLA-A*24:03 = assay: as above
HLA-A*03:01 = assay: as above
HLA-B*15:01 = assay: as above
HLA-A*02:01 [5] = assay: as above
HLA-B*07:02 [6] = assay: as above
HLA-A*26:01 = assay: as above
HLA-A*01:01 = assay: as above
HLA-B*40:01 = assay: as above
HLA-A*30:01 = assay: as above; conditions: source organism: Corynebacterium glutamicum
HLA-B*08:01 [7] = assay: as above
HLA-B*35:01 = assay: as above
HLA-B*27:05 = assay: as above
HLA-B*58:01 = assay: as above
HLA-A*31:01 [8] = assay: IEDB peptide-MHC binding, purified MHC/competitive/fluorescence; filed as Kd, often an IC50 or EC50 that approximates it; ≥ and ≤ were set here for values at or beyond the usual limits of such assays; conditions: source organism: Giardia lamblia ATCC 50803
HLA-B*83:01 = assay: as above; conditions: source organism: Giardia lamblia ATCC 50803
HLA-B*45:06 = assay: as above; conditions: source organism: Giardia lamblia ATCC 50803
HLA-B*15:42 = assay: as above; conditions: source organism: Giardia lamblia ATCC 50803
HLA-A*32:07 = assay: as above; conditions: source organism: Giardia lamblia ATCC 50803
HLA-A*69:01 = assay: IEDB peptide-MHC binding, purified MHC/direct/fluorescence; filed as Kd, often an IC50 or EC50 that approximates it; ≥ and ≤ were set here for values at or beyond the usual limits of such assays
HLA-B*44:02 = assay: as above; conditions: source organism: Escherichia coli O157:H7
HLA-A*24:02 [9] = assay: IEDB peptide-MHC binding, purified MHC/competitive/fluorescence; ≥ and ≤ were set here for values at or beyond the usual limits of such assays; conditions: source organism: Variola virus
HLA-B*07:02 [10] = assay: as above; conditions: source organism: Variola virus
HLA-A*23:01 = assay: IEDB peptide-MHC binding, purified MHC/direct/fluorescence; filed as Kd, often an IC50 or EC50 that approximates it; ≥ and ≤ were set here for values at or beyond the usual limits of such assays
HLA-B*18:01 = assay: as above
HLA-A*24:02 [11] = assay: as above
HLA-A*68:02 = assay: as above
HLA-B*39:01 = assay: as above
HLA-B*57:01 = assay: as above
HLA-A*26:02 [12] = assay: as above; conditions: source organism: Vibrio vulnificus CMCP6
HLA-A*11:01 [13] = assay: IEDB peptide-MHC binding, purified MHC/competitive/fluorescence; filed as Kd, often an IC50 or EC50 that approximates it; ≥ and ≤ were set here for values at or beyond the usual limits of such assays; conditions: source organism: Vibrio vulnificus YJ016
HLA-B*15:17 [14] = assay: as above; conditions: source organism: Vibrio vulnificus YJ016
HLA-B*15:17 [15] = assay: IEDB peptide-MHC binding, purified MHC/direct/fluorescence; filed as Kd, often an IC50 or EC50 that approximates it; ≥ and ≤ were set here for values at or beyond the usual limits of such assays; conditions: source organism: Campylobacter jejuni
HLA-A*26:03 = assay: as above; conditions: source organism: Campylobacter jejuni subsp. jejuni CG8486
HLA-B*15:09 = assay: as above; conditions: source organism: Campylobacter jejuni subsp. jejuni CG8486
HLA-A*26:02 [16] = assay: IEDB peptide-MHC binding, purified MHC/competitive/fluorescence; filed as Kd, often an IC50 or EC50 that approximates it; ≥ and ≤ were set here for values at or beyond the usual limits of such assays; conditions: source organism: Campylobacter jejuni subsp. jejuni NCTC 11168 = ATCC 700819
HLA-A*02:01 [17] = assay: IEDB peptide-MHC binding, purified MHC/competitive/radioactivity; ≥ and ≤ were set here for values at or beyond the usual limits of such assays; conditions: source organism: Rhinovirus C
[18] = source organism: Corynebacterium glutamicum
[19] = source organism: Escherichia coli O157:H7
[20] = source organism: Escherichia coli
[21] = source organism: Vibrio vulnificus
[22] = source organism: Vibrio vulnificus CMCP6
[23] = source organism: Salmonella enterica subsp. enterica serovar Typhimurium
[24] = source organism: Campylobacter jejuni

NIKHKERIP
pIC50 (HLA-B*08:01 [1]; source organism: Vaccinia virus Copenhagen): ≤ 3.53

HRTIHHASA
pIC50 (HLA-A*11:01 [2]): ≤ 3.81
pIC50 (HLA-B*08:01 [1]; source organism: Zaire ebolavirus): ≤ 3.86

WPALSSIAA
pKd (HLA-A*11:01 [3]; [18]): ≤ 4.70
pKd (HLA-A*31:01 [4]; [18]): ≤ 4.70
pKd (HLA-A*24:03; [18]): ≤ 4.70
pKd (HLA-A*03:01; [18]): ≤ 4.70
pKd (HLA-B*15:01; [18]): ≤ 5.30
pKd (HLA-A*02:01 [5]; [18]): ≤ 4.70
pKd (HLA-B*07:02 [6]; [18]): 8.06
pKd (HLA-A*26:01; [18]): ≤ 4.70
pKd (HLA-A*01:01; [18]): ≤ 4.70
pKd (HLA-B*40:01; [18]): ≤ 4.70
pKd (HLA-A*30:01): 5.12
pKd (HLA-B*08:01 [7]; [18]): 5.89
pKd (HLA-B*35:01; [18]): 8.77
pKd (HLA-B*27:05; [18]): ≤ 4.70
pKd (HLA-B*58:01; [18]): ≤ 4.70

RLYPFGSYY
pKd (HLA-A*03:01; source organism: Giardia lamblia ATCC 50803): ≥ 9.00
pKd (HLA-A*31:01 [8]): 7.50
pKd (HLA-B*83:01): ≤ 5.30
pKd (HLA-B*45:06): ≤ 5.30
pKd (HLA-B*15:42): ≤ 5.30
pKd (HLA-A*32:07): 8.39

DPRDDLSGM
pKd (HLA-A*11:01 [3]; [19]): ≤ 4.70
pKd (HLA-A*31:01 [4]; [19]): ≤ 4.70
pKd (HLA-A*24:03; [20]): ≤ 4.70
pKd (HLA-A*03:01; [19]): ≤ 4.70
pKd (HLA-B*15:01; [19]): ≤ 4.70
pKd (HLA-A*02:01 [5]; [19]): ≤ 4.70
pKd (HLA-A*69:01; [19]): ≤ 4.70
pKd (HLA-B*44:02): ≤ 4.70
pKd (HLA-B*07:02 [6]; [20]): 5.11
pKd (HLA-A*26:01; [19]): ≤ 4.70
pKd (HLA-A*01:01; [19]): ≤ 4.70
pKd (HLA-B*40:01; [19]): ≤ 4.70
pKd (HLA-B*08:01 [7]; [19]): ≤ 4.70
pKd (HLA-B*35:01; [20]): 7.00
pKd (HLA-B*27:05; [19]): ≤ 4.70
pKd (HLA-B*58:01; [19]): ≤ 4.70

TPKAQREIF
pIC50 (HLA-A*24:02 [9]): 4.85
pIC50 (HLA-B*07:02 [10]): 4.79
pIC50 (HLA-B*08:01 [1]; source organism: Variola virus): ≤ 3.85

PHPVVVRTL
pKd (HLA-A*31:01 [4]; [21]): ≤ 4.70
pKd (HLA-A*24:03; [21]): ≤ 4.70
pKd (HLA-A*03:01; [21]): ≤ 4.70
pKd (HLA-A*23:01; [21]): ≤ 4.70
pKd (HLA-B*15:01; [21]): 6.11
pKd (HLA-A*02:01 [5]; [21]): ≤ 4.70
pKd (HLA-A*69:01; [21]): ≤ 4.70
pKd (HLA-B*18:01; [21]): ≤ 4.70
pKd (HLA-A*24:02 [11]; [21]): 4.74
pKd (HLA-A*68:02; [21]): ≤ 4.70
pKd (HLA-B*39:01; [22]): ≤ 4.70
pKd (HLA-B*07:02 [6]; [21]): ≤ 4.70
pKd (HLA-A*26:01; [22]): ≤ 4.70
pKd (HLA-A*01:01; [21]): ≤ 4.70
pKd (HLA-B*57:01; [21]): ≤ 4.70
pKd (HLA-A*26:02 [12]): ≤ 4.70
pKd (HLA-B*27:05; [21]): ≤ 4.70
pKd (HLA-B*58:01; [21]): ≤ 4.70
pKd (HLA-A*11:01 [13]): ≤ 4.70
pKd (HLA-B*15:17 [14]): ≤ 4.70

ATISYRIKL
pKd (HLA-A*11:01 [3]; [23]): 7.26
pKd (HLA-A*31:01 [4]; [19]): ≤ 4.70
pKd (HLA-A*03:01; [19]): ≤ 4.70
pKd (HLA-B*15:01; [19]): ≤ 4.70
pKd (HLA-A*02:01 [5]; [23]): 6.97
pKd (HLA-A*69:01; [23]): 7.25
pKd (HLA-B*44:02): ≤ 4.70
pKd (HLA-B*07:02 [6]; [19]): ≤ 4.70
pKd (HLA-A*26:01; [23]): 5.58
pKd (HLA-A*01:01; [19]): ≤ 4.70
pKd (HLA-B*40:01; [19]): ≤ 4.70
pKd (HLA-B*08:01 [7]; [19]): ≤ 4.70
pKd (HLA-B*35:01; [23]): 6.27
pKd (HLA-B*27:05; [19]): ≤ 4.70
pKd (HLA-B*58:01; [19]): ≤ 4.70

DISPTNIPL
pKd (HLA-A*11:01 [3]; [19]): ≤ 4.70
pKd (HLA-A*31:01 [4]; [19]): ≤ 4.70
pKd (HLA-A*03:01; [19]): ≤ 4.70
pKd (HLA-B*15:01; [19]): ≤ 4.70
pKd (HLA-A*02:01 [5]; [19]): ≤ 4.70
pKd (HLA-A*69:01; [19]): 7.83
pKd (HLA-B*44:02): ≤ 4.70
pKd (HLA-B*07:02 [6]; [19]): ≤ 4.70
pKd (HLA-A*26:01; [19]): 5.18
pKd (HLA-A*01:01; [19]): ≤ 4.70
pKd (HLA-B*40:01; [19]): ≤ 4.70
pKd (HLA-B*08:01 [7]; [19]): ≤ 4.70
pKd (HLA-B*35:01; [19]): 6.98
pKd (HLA-B*27:05; [19]): ≤ 4.70
pKd (HLA-B*58:01; [19]): ≤ 4.70

WFGHLASDW
pKd (HLA-A*11:01 [3]; [24]): ≤ 4.70
pKd (HLA-A*31:01 [4]; [24]): ≤ 4.70
pKd (HLA-B*15:17 [15]): ≤ 4.70
pKd (HLA-A*24:03; [24]): 7.67
pKd (HLA-A*03:01; [24]): ≤ 4.70
pKd (HLA-A*23:01; [24]): 6.47
pKd (HLA-A*26:03): ≤ 4.70
pKd (HLA-B*15:01; [24]): 5.15
pKd (HLA-A*02:01 [5]; [24]): ≤ 4.70
pKd (HLA-A*69:01; [24]): ≤ 4.70
pKd (HLA-B*18:01; [24]): ≤ 4.70
pKd (HLA-A*24:02 [11]; [24]): 5.80
pKd (HLA-A*68:02; [24]): ≤ 4.70
pKd (HLA-B*39:01; source organism: Campylobacter jejuni subsp. jejuni CG8486): ≤ 4.70
pKd (HLA-B*15:09): ≤ 4.70
pKd (HLA-B*07:02 [6]; [24]): ≤ 4.70
pKd (HLA-A*01:01; [24]): ≤ 4.70
pKd (HLA-B*57:01; [24]): ≤ 4.70
pKd (HLA-B*27:05; [24]): ≤ 4.70
pKd (HLA-B*58:01; [24]): 4.89
pKd (HLA-A*26:02 [16]): ≤ 4.70

DLNTSAGFPYV
pIC50 (HLA-A*02:01 [17]): 6.30
